Results on 2 substances are retold here after patent publication US20240294611A1.

Where “and” joins values, the source holds several entries; their conditions need not be identical. Equal entries are not always repeated.

Test [1] concerns the target wild-type SARS-CoV-2 spike without stabilizing modifications (on cells or pseudovirus) (SARS-CoV-2) (UniProt P0DTC2). The test is described as follows: cell-based or functional assay.
Test [2] deals with SARS-CoV spike without stabilizing modifications on pseudovirus (SARS-CoV) (UniProt P59594). Description: cell-based or functional assay.
In test [3] the target is SARS-CoV-2 HexaPro spike (SARS-CoV-2) (UniProt P0DTC2).

Regarding antibody S309 (Pinto et al., 2020), the Pseudovirus IC50 was found to be 1 nM in test [1] and 0.5 nM in test [2]. Moreover, in test [3], the Kd was 18 nM and 24 nM.
In the case of “isotype control antibody with irrelevant binding”, the Pseudovirus IC50 in test [1] and in test [2] was over 5000 nM each time.

The term Kd denotes a measure of binding affinity in units of concentration. The low end stands for tighter binding, the high end for weaker binding.
